For one substance, Km results are on record in PMC2685030, “SmCL3, a Gastrodermal Cysteine Protease of the Human Blood Fluke Schistosoma mansoni” (PLoS Neglected Tropical Diseases, 2009).

For this series, the system named is Cc1cc(=O)oc2cc(NC(=O)[C@H](CCCNC(=N)N)NC(=O)[C@H](Cc3ccccc3)NC(=O)OCc3ccccc3)ccc12. Kind of series: purified protein. The following applies: pH 6.0 citrate-phosphate, 25°C, 3 nM enzyme.

Consider SmCL3 (Schistosoma mansoni), for which the Michaelis-Menten constant (Km) (in general, the substrate concentration at which the rate is half of its maximum) amounted to 20.2 µM.
